The data set concerns the target cardiac troponin I (cTnI) (human, UniProt P19429 2-210). Nature of the data set: ISFET aptasensor; 1 mM Mg2+; AC mode 2.4 V, 10 kHz 0.1 Vp-p; LoD 3.27 ng/mL, linear range 3.27-625 ng/mL (no Kd); 10 mM Tris-HCl pH 7.7, 8 mM NaCl, 1 mM MgCl2; temperature not stated. The note with it: protein: recombinant.

Chain of cardiac troponin I (cTnI) (P19429 2-210): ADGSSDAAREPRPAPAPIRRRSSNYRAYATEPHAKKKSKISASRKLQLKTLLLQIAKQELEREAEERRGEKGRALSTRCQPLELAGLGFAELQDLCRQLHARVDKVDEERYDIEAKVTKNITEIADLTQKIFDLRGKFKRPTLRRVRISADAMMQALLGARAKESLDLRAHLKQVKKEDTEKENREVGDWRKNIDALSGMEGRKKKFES

As to CGCATGCCAAACGTTGCCTCATAGTTCCCTCCCCGTGTCC (ssDNA, 5'-SH (thiol)) [Tro6], the binding result is given as “binds”.

These data come from article PMC11125907, “A Portable Readout System for Biomarker Detection with Aptamer-Modified CMOS ISFET Array”.
